According to the supplement of paper PMC9112550, “Optimization of the antimicrobial peptide Bac7 by deep mutational scanning” (BMC Biology, 2022):
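Note: peptides expressed intracellularly from a pBAD plasmid library in pooled LB shake-flask culture, induced with 0.3% L-arabinose, DNA abundance read by NGS, three biological replicates, DESeq2 with apeglm shrinkage.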

The sequences below were run on Escherichia coli TOP10 (assay: shrunken log2 fold change of peptide-encoding DNA abundance (4.5 h post-induction vs induction); higher = less antimicrobial activity (less host growth inhibition)). Conditions: time post-induction: 4.5 h; library: site-saturation at positions 5, 18, 19, 20.
In the case of RRIRHRPPRLPRPRPRPQFIPRP, the “shrunken log2 fold change” value is reported as -0.0365. With RRIRCRPPRLPRPRPRPASIPRP the “shrunken log2 fold change” value was -0.612. For RRIRMRPPRLPRPRPRPEAKPRP, the “shrunken log2 fold change” value was 2.72. RRIRHRPPRLPRPRPRPDGHPRP was tested, and the “shrunken log2 fold change” value was -0.0262. With RRIRNRPPRLPRPRPRPINFPRP the “shrunken log2 fold change” value was -0.27. RRIRFRPPRLPRPRPRPFWHPRP was tested, and the “shrunken log2 fold change” value was 0.041. In the case of RRIRRRPPRLPRPRPRPMLMPRP, the “shrunken log2 fold change” value is reported as 0.122. RRIRSRPPRLPRPRPRPFVEPRP was tested, and the “shrunken log2 fold change” value was -0.123. For RRIRWRPPRLPRPRPRPTVPPRP, the “shrunken log2 fold change” value was 0.0399. RRIRTRPPRLPRPRPRPTCCPRP was tested, and the “shrunken log2 fold change” value was -0.0411. RRIRLRPPRLPRPRPRPGKSPRP was tested, and the “shrunken log2 fold change” value was -0.047. RRIRKRPPRLPRPRPRPVMTPRP was tested, and the “shrunken log2 fold change” value was 0.0351. For RRIRARPPRLPRPRPRPIAEPRP, the “shrunken log2 fold change” value was 0.42. In the case of RRIRMRPPRLPRPRPRPSQCPRP, the “shrunken log2 fold change” value is reported as -0.112. For RRIRWRPPRLPRPRPRPAEIPRP, the “shrunken log2 fold change” value was 0.107. RRIRMRPPRLPRPRPRPKQAPRP was tested, and the “shrunken log2 fold change” value was 3.56. RRIRKRPPRLPRPRPRPCWQPRP was tested, and the “shrunken log2 fold change” value was 0.154. RRIRNRPPRLPRPRPRPHFMPRP was tested, and the “shrunken log2 fold change” value was -0.409. With RRIRTRPPRLPRPRPRPYCCPRP the “shrunken log2 fold change” value was -0.364. With RRIRDRPPRLPRPRPRPDGGPRP the “shrunken log2 fold change” value was -0.00182. With RRIRRRPPRLPRPRPRPHQGPRP the “shrunken log2 fold change” value was 0.0901. In the case of RRIRVRPPRLPRPRPRPSENPRP, the “shrunken log2 fold change” value is reported as 0.0175. RRIRGRPPRLPRPRPRPFYYPRP was tested, and the “shrunken log2 fold change” value was 0.07. RRIRFRPPRLPRPRPRPLEAPRP was tested, and the “shrunken log2 fold change” value was 0.0974. For RRIRDRPPRLPRPRPRPGVHPRP, the “shrunken log2 fold change” value was -0.0373. RRIRWRPPRLPRPRPRPQGPPRP was tested, and the “shrunken log2 fold change” value was 1.32. In the case of RRIRMRPPRLPRPRPRPAHVPRP, the “shrunken log2 fold change” value is reported as 0.176. For RRIRTRPPRLPRPRPRPVFCPRP, the “shrunken log2 fold change” value was -0.139. For RRIRHRPPRLPRPRPRPWDQPRP, the “shrunken log2 fold change” value was 0.0769. In the case of RRIRLRPPRLPRPRPRPPNFPRP, the “shrunken log2 fold change” value is reported as 0.0275. RRIRYRPPRLPRPRPRPQITPRP was tested, and the “shrunken log2 fold change” value was -0.918. With RRIRIRPPRLPRPRPRPFDDPRP the “shrunken log2 fold change” value was 0.0183. RRIRCRPPRLPRPRPRPNVKPRP was tested, and the “shrunken log2 fold change” value was -0.482. In the case of RRIRERPPRLPRPRPRPQYSPRP, the “shrunken log2 fold change” value is reported as -0.0489. For RRIRCRPPRLPRPRPRPQPAPRP, the “shrunken log2 fold change” value was 0.632. With RRIRHRPPRLPRPRPRPMLSPRP the “shrunken log2 fold change” value was -0.0786. With RRIRPRPPRLPRPRPRPCNFPRP the “shrunken log2 fold change” value was -0.129. For RRIRYRPPRLPRPRPRPQVLPRP, the “shrunken log2 fold change” value was -0.725. In the case of RRIRHRPPRLPRPRPRPKQHPRP, the “shrunken log2 fold change” value is reported as -0.2. In the case of RRIRERPPRLPRPRPRPACCPRP, the “shrunken log2 fold change” value is reported as 0.0931. RRIRLRPPRLPRPRPRPIDSPRP was tested, and the “shrunken log2 fold change” value was -0.0384. RRIRTRPPRLPRPRPRPVQVPRP was tested, and the “shrunken log2 fold change” value was 0.0995. In the case of RRIRTRPPRLPRPRPRPGLMPRP, the “shrunken log2 fold change” value is reported as 0.0921. With RRIRLRPPRLPRPRPRPMYLPRP the “shrunken log2 fold change” value was 0.0092. For RRIRCRPPRLPRPRPRPYKTPRP, the “shrunken log2 fold change” value was -0.404. In the case of RRIRERPPRLPRPRPRPKNCPRP, the “shrunken log2 fold change” value is reported as -0.0945. For RRIRFRPPRLPRPRPRPVMTPRP, the “shrunken log2 fold change” value was -0.218. For RRIRMRPPRLPRPRPRPVWPPRP, the “shrunken log2 fold change” value was 1.07. RRIRMRPPRLPRPRPRPWVPPRP was tested, and the “shrunken log2 fold change” value was -0.0184. With RRIRHRPPRLPRPRPRPECRPRP the “shrunken log2 fold change” value was 0.0764. With RRIRQRPPRLPRPRPRPIAGPRP the “shrunken log2 fold change” value was 0.139. RRIRGRPPRLPRPRPRPNDEPRP was tested, and the “shrunken log2 fold change” value was 0.482. With RRIRNRPPRLPRPRPRPGCNPRP the “shrunken log2 fold change” value was -0.642. RRIRIRPPRLPRPRPRPDDWPRP was tested, and the “shrunken log2 fold change” value was -0.0592. RRIRCRPPRLPRPRPRPWAVPRP was tested, and the “shrunken log2 fold change” value was 0.0183. RRIRTRPPRLPRPRPRPGASPRP was tested, and the “shrunken log2 fold change” value was 0.156. In the case of RRIRWRPPRLPRPRPRPGFMPRP, the “shrunken log2 fold change” value is reported as 0.212. With RRIRRRPPRLPRPRPRPPGFPRP the “shrunken log2 fold change” value was 0.468. For RRIRRRPPRLPRPRPRPLVFPRP, the “shrunken log2 fold change” value was -0.0441. RRIRRRPPRLPRPRPRPFKYPRP was tested, and the “shrunken log2 fold change” value was -0.252. In the case of RRIRHRPPRLPRPRPRPFRWPRP, the “shrunken log2 fold change” value is reported as 0.137. In the case of RRIRRRPPRLPRPRPRPWDGPRP, the “shrunken log2 fold change” value is reported as 0.399. With RRIRDRPPRLPRPRPRPKANPRP the “shrunken log2 fold change” value was 0.091. In the case of RRIRNRPPRLPRPRPRPMFDPRP, the “shrunken log2 fold change” value is reported as -0.253. RRIRRRPPRLPRPRPRPQKYPRP was tested, and the “shrunken log2 fold change” value was -0.696. With RRIRARPPRLPRPRPRPAHSPRP the “shrunken log2 fold change” value was 0.469. With RRIRARPPRLPRPRPRPHLAPRP the “shrunken log2 fold change” value was 0.298. For RRIRRRPPRLPRPRPRPTFDPRP, the “shrunken log2 fold change” value was 0.425. In the case of RRIRRRPPRLPRPRPRPSDVPRP, the “shrunken log2 fold change” value is reported as -0.374. For RRIRQRPPRLPRPRPRPFHPPRP, the “shrunken log2 fold change” value was -0.197. With RRIRIRPPRLPRPRPRPMSCPRP the “shrunken log2 fold change” value was -0.141. RRIRTRPPRLPRPRPRPYWMPRP was tested, and the “shrunken log2 fold change” value was -0.707. For RRIRERPPRLPRPRPRPCHEPRP, the “shrunken log2 fold change” value was -0.0789. RRIRCRPPRLPRPRPRPNYPPRP was tested, and the “shrunken log2 fold change” value was -0.427. For RRIRVRPPRLPRPRPRPHMYPRP, the “shrunken log2 fold change” value was -0.509. RRIRDRPPRLPRPRPRPHLGPRP was tested, and the “shrunken log2 fold change” value was 0.0158. For RRIRCRPPRLPRPRPRPDYNPRP, the “shrunken log2 fold change” value was -0.571. In the case of RRIRPRPPRLPRPRPRPAINPRP, the “shrunken log2 fold change” value is reported as -0.142. RRIRQRPPRLPRPRPRPLTTPRP was tested, and the “shrunken log2 fold change” value was 0.106. With RRIRDRPPRLPRPRPRPCFVPRP the “shrunken log2 fold change” value was 0.0784. With RRIRLRPPRLPRPRPRPVNRPRP the “shrunken log2 fold change” value was 0.199. For RRIRGRPPRLPRPRPRPLADPRP, the “shrunken log2 fold change” value was 1.68. With RRIRDRPPRLPRPRPRPWCSPRP the “shrunken log2 fold change” value was -0.348. In the case of RRIRKRPPRLPRPRPRPLYDPRP, the “shrunken log2 fold change” value is reported as -0.0647. For RRIRMRPPRLPRPRPRPKWHPRP, the “shrunken log2 fold change” value was 0.349. RRIRLRPPRLPRPRPRPLTCPRP was tested, and the “shrunken log2 fold change” value was -0.0184. With RRIRCRPPRLPRPRPRPHLEPRP the “shrunken log2 fold change” value was 0.0414. RRIRERPPRLPRPRPRPPTWPRP was tested, and the “shrunken log2 fold change” value was 0.113. With RRIRGRPPRLPRPRPRPAIDPRP the “shrunken log2 fold change” value was 0.568. With RRIRFRPPRLPRPRPRPCKQPRP the “shrunken log2 fold change” value was 0.00386. For RRIRRRPPRLPRPRPRPWAMPRP, the “shrunken log2 fold change” value was -0.136. RRIRFRPPRLPRPRPRPHCAPRP was tested, and the “shrunken log2 fold change” value was -0.17. In the case of RRIRARPPRLPRPRPRPNLAPRP, the “shrunken log2 fold change” value is reported as -0.179. In the case of RRIRARPPRLPRPRPRPDASPRP, the “shrunken log2 fold change” value is reported as 1.94. For RRIRLRPPRLPRPRPRPKSKPRP, the “shrunken log2 fold change” value was -0.071. With RRIRMRPPRLPRPRPRPRNHPRP the “shrunken log2 fold change” value was 0.263. In the case of RRIRQRPPRLPRPRPRPFFCPRP, the “shrunken log2 fold change” value is reported as 0.111. In the case of RRIRGRPPRLPRPRPRPACNPRP, the “shrunken log2 fold change” value is reported as 0.415. For RRIRARPPRLPRPRPRPTGMPRP, the “shrunken log2 fold change” value was 0.52. With RRIRFRPPRLPRPRPRPGVAPRP the “shrunken log2 fold change” value was 0.292. RRIRCRPPRLPRPRPRPSFAPRP was tested, and the “shrunken log2 fold change” value was -0.0835. In the case of RRIRHRPPRLPRPRPRPSMRPRP, the “shrunken log2 fold change” value is reported as 0.204. RRIRFRPPRLPRPRPRPVSKPRP was tested, and the “shrunken log2 fold change” value was -0.358. RRIRSRPPRLPRPRPRPCPEPRP was tested, and the “shrunken log2 fold change” value was -0.444. In the case of RRIRMRPPRLPRPRPRPCLKPRP, the “shrunken log2 fold change” value is reported as 0.12. With RRIRCRPPRLPRPRPRPKTYPRP the “shrunken log2 fold change” value was -0.48. In the case of RRIRERPPRLPRPRPRPVPAPRP, the “shrunken log2 fold change” value is reported as 0.224. In the case of RRIRDRPPRLPRPRPRPCTEPRP, the “shrunken log2 fold change” value is reported as 0.373. RRIRWRPPRLPRPRPRPCANPRP was tested, and the “shrunken log2 fold change” value was 0.0268.
